Experimental data published in paper PMC5309860 (2017).

B1: His-β-arrestin-1-WT [not stated] / GST-PLCγ-SH3 [human] (parent complex)
chain 1: MGDKGTRVFKKASPNGKLTVYLGKRDFVDHIDLVDPVDGVVLVDPEYLKERRVYVTLTCAFRYGREDLDVLGLTFRKDLFVANVQSFPPAPEDKKPLTRLQERLIKKLGEHAYPFTFEIPPNLPCSVTLQPGPEDTGKACGVDYEVKAFCAENLEEKIHKRNSVRLVIRKVQYAPERPGPQPTAETTRQFLMSDKPLHLEASLDKEIYYHGEPISVNVHVTNNTNKTVKKIKISVRQYADICLFNTAQYKCPVAMEEADDTVAPSSTFCKVYTLTPFLANNREKRGLALDGKLKHEDTNLASSTLLREGANREILGIIVSYKVKVKLVVSRGGLLGDLASSDVAVELPFTLMHPKPKEEPPHREVPENETPVDTNLIELDTNDDDIVFEDFARQRLKGMKDDKEEEEDGTGSPQLNNR
chain 2: TFKCAVKALFDYKAQREDELTFIKSAIIQNVEKQEGGWWRGDYGGKKQLWFPSNYVEEMVN

Variants of: B1
Assay: GST pull down assay (quantified western blot); 5 μM GST-PLCγ-SH3, 5 μM β-arrestin-1, with GRK6pp; parent: 2.5; read off a plot

screen value | Variant
~2.7 fold | chain 1 MGDKGTRVFKKASPNGKLTVYLGKRDFVDHIDLVDPVDGVVLVDPEYLKERRVYVTLTCAFRYGREDLDVLGLTFRKDLFVANVQSFPPAPEDKKPLTRLQERLIKKLGEHAYPFTFEIPANLPCSVTLQPGPEDTGKACGVDYEVKAFCAENLEEKIHKRNSVRLVIRKVQYAPERPGPQPTAETTRQFLMSDKPLHLEASLDKEIYYHGEPISVNVHVTNNTNKTVKKIKISVRQYADICLFNTAQYKCPVAMEEADDTVAPSSTFCKVYTLTPFLANNREKRGLALDGKLKHEDTNLASSTLLREGANREILGIIVSYKVKVKLVVSRGGLLGDLASSDVAVELPFTLMHPKPKEEPPHREVPENETPVDTNLIELDTNDDDIVFEDFARQRLKGMKDDKEEEEDGTGSPQLNNR [chain 1 P121A]
~1.1 fold | chain 1 MGDKGTRVFKKASPNGKLTVYLGKRDFVDHIDLVDPVDGVVLVDPEYLKERRVYVTLTCAFRYGREDLDVLGLTFRKDLFVANVQSFAAAAEDKKPLTRLQERLIKKLGEHAYPFTFEIPPNLPCSVTLQPGPEDTGKACGVDYEVKAFCAENLEEKIHKRNSVRLVIRKVQYAPERPGPQPTAETTRQFLMSDKPLHLEASLDKEIYYHGEPISVNVHVTNNTNKTVKKIKISVRQYADICLFNTAQYKCPVAMEEADDTVAPSSTFCKVYTLTPFLANNREKRGLALDGKLKHEDTNLASSTLLREGANREILGIIVSYKVKVKLVVSRGGLLGDLASSDVAVELPFTLMHPKPKEEPPHREVPENETPVDTNLIELDTNDDDIVFEDFARQRLKGMKDDKEEEEDGTGSPQLNNR [chain 1 P88A, chain 1 P89A, chain 1 P91A]
~2.6 fold | chain 1 MGDKGTRVFKKASPNGKLTVYLGKRDFVDHIDLVDPVDGVVLVDPEYLKERRVYVTLTCAFRYGREDLDVLGLTFRKDLFVANVQSFPPAPEDKKPLTRLQERLIKKLGEHAYPFTFEIPPNLPCSVTLQPGPEDTGKACGVDYEVKAFCAENLEEKIHKRNSVRLVIRKVQYAPERPGAQPTAETTRQFLMSDKPLHLEASLDKEIYYHGEPISVNVHVTNNTNKTVKKIKISVRQYADICLFNTAQYKCPVAMEEADDTVAPSSTFCKVYTLTPFLANNREKRGLALDGKLKHEDTNLASSTLLREGANREILGIIVSYKVKVKLVVSRGGLLGDLASSDVAVELPFTLMHPKPKEEPPHREVPENETPVDTNLIELDTNDDDIVFEDFARQRLKGMKDDKEEEEDGTGSPQLNNR [chain 1 P180A]

Variants of: B1
Assay: GST pull down assay (quantified western blot); 5 μM GST-PLCγ-SH3, 5 μM β-arrestin-1, without GRK6pp; parent: 1; read off a plot

screen value | Variant
~1.1 fold | chain 1 MGDKGTRVFKKASPNGKLTVYLGKRDFVDHIDLVDPVDGVVLVDPEYLKERRVYVTLTCAFRYGREDLDVLGLTFRKDLFVANVQSFPPAPEDKKPLTRLQERLIKKLGEHAYPFTFEIPANLPCSVTLQPGPEDTGKACGVDYEVKAFCAENLEEKIHKRNSVRLVIRKVQYAPERPGPQPTAETTRQFLMSDKPLHLEASLDKEIYYHGEPISVNVHVTNNTNKTVKKIKISVRQYADICLFNTAQYKCPVAMEEADDTVAPSSTFCKVYTLTPFLANNREKRGLALDGKLKHEDTNLASSTLLREGANREILGIIVSYKVKVKLVVSRGGLLGDLASSDVAVELPFTLMHPKPKEEPPHREVPENETPVDTNLIELDTNDDDIVFEDFARQRLKGMKDDKEEEEDGTGSPQLNNR [chain 1 P121A]
~1.1 fold | chain 1 MGDKGTRVFKKASPNGKLTVYLGKRDFVDHIDLVDPVDGVVLVDPEYLKERRVYVTLTCAFRYGREDLDVLGLTFRKDLFVANVQSFAAAAEDKKPLTRLQERLIKKLGEHAYPFTFEIPPNLPCSVTLQPGPEDTGKACGVDYEVKAFCAENLEEKIHKRNSVRLVIRKVQYAPERPGPQPTAETTRQFLMSDKPLHLEASLDKEIYYHGEPISVNVHVTNNTNKTVKKIKISVRQYADICLFNTAQYKCPVAMEEADDTVAPSSTFCKVYTLTPFLANNREKRGLALDGKLKHEDTNLASSTLLREGANREILGIIVSYKVKVKLVVSRGGLLGDLASSDVAVELPFTLMHPKPKEEPPHREVPENETPVDTNLIELDTNDDDIVFEDFARQRLKGMKDDKEEEEDGTGSPQLNNR [chain 1 P88A, chain 1 P89A, chain 1 P91A]
~1.2 fold | chain 1 MGDKGTRVFKKASPNGKLTVYLGKRDFVDHIDLVDPVDGVVLVDPEYLKERRVYVTLTCAFRYGREDLDVLGLTFRKDLFVANVQSFPPAPEDKKPLTRLQERLIKKLGEHAYPFTFEIPPNLPCSVTLQPGPEDTGKACGVDYEVKAFCAENLEEKIHKRNSVRLVIRKVQYAPERPGAQPTAETTRQFLMSDKPLHLEASLDKEIYYHGEPISVNVHVTNNTNKTVKKIKISVRQYADICLFNTAQYKCPVAMEEADDTVAPSSTFCKVYTLTPFLANNREKRGLALDGKLKHEDTNLASSTLLREGANREILGIIVSYKVKVKLVVSRGGLLGDLASSDVAVELPFTLMHPKPKEEPPHREVPENETPVDTNLIELDTNDDDIVFEDFARQRLKGMKDDKEEEEDGTGSPQLNNR [chain 1 P180A]
